# Assay results from patent US11419945B2, “Antigen binding proteins” (Glaxo Group Limited, priority 2011, dated 2022).
# T1: human BCMA HEK293 (Homo sapiens, UniProt Q02223)
# T1 construct: expressed in transfected cells; host or cells: HEK293
# T1 sequence (Q02223 1-184): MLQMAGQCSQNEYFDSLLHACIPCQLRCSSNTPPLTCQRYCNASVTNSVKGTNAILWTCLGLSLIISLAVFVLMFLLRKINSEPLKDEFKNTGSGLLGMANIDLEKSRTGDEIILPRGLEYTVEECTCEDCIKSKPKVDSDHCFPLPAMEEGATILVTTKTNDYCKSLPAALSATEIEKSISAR
# T2: Human commercial BCMA (Homo sapiens, UniProt Q02223)
# T2 construct: purchased US Biological B0410
# T2 sequence (Q02223 1-184): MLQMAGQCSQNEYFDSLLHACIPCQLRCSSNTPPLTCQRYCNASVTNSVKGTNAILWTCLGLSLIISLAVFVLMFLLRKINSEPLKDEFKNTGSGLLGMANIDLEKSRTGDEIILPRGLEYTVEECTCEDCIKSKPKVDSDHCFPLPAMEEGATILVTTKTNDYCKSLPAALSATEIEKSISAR
# T3: ARH77-hBCMA 10B5 BCMA expressing transfectant cells (Homo sapiens, UniProt Q02223)
# T3 construct: expressed in transfected cells; host or cells: ARH77 (clone 10B5)
# T3 sequence (Q02223 1-184): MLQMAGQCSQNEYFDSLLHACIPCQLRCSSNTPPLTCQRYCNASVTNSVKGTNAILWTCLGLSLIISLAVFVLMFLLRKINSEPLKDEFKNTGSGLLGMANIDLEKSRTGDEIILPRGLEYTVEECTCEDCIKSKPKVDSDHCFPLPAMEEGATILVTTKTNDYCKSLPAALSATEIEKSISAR
# How the values were obtained:
# BCMA-Fc = assay: Biacore cross reactivity experiment, BCMA-Fc; type: binding; details: antibody captured on protein A
# Procedure: (§1) CA8 chimera antibody was injected and captured on protein A. (A protein A derivitised sensorchip was used). Residual protein A binding was blocked with an injection of a high concentration of human IgG solution. BCMA-Fc, TACI-Fc or BAFF-R-Fc solutions were then tested for binding to the antibody. The 3 proteins were injected in sequence and binding events were measured. The surface was regenerated between injection of each protein.
# (§2) Sensorgrams were analysed in the Biaevaluation program. Double reference subtraction was done to remove instrument noise and any non-specific binding from the sensorgram curves.
# BAFF-R-Fc = assay: Biacore cross reactivity experiment, BAFF-R-Fc; type: binding; details: antibody captured on protein A; listed as CA8 chimera antibody
# Procedure: as §1, §2
# human BCMA HEK293 = target: T1, human BCMA HEK293; assay: FMAT binding assay, human BCMA expressing HEK293 cells; details: range of antibody concentrations
# Procedure: Cryopreserved transfected human, cyno BCMA and mock transfected HEK293 cells were recovered from LN2 storage. Assay wells were prepared with human chimeric CA8 antibody, at a range of different concentrations, mixed with human BCMA HEK293, cyno BCMA HEK293 and mock transfected cells respectively. Anti-human IgG FMAT Blue secondary conjugate was added for detection of human chimeric CA8. The assay plates were left for a minimum of 90 minutes before the result was read on the ABI8200 (FMAT) plate reader.
# H929 cells = assay: FACS binding of humanised CA8 to H929 cells; design: species or system human; details: varying concentrations, 20 minutes at RT
# Procedure: (§3) ARH77-hBCMA 10B5 BCMA expressing transfectant cells or H929 cells were stained with either chimeric CA8 or humanised variants of CA8 designated J6M0, J6M1, J6M2, J9M0, J9M1, J9M2 at varying concentrations for 20 minutes at RT. Cells were then washed with FACS buffer (PBS+0.5% BSA+0.1% sodium azide) to remove unbound antibody. Cells were incubated with a secondary PE labelled anti-human IgG antibody for 15 minutes at RT and then washed with FACS buffer to remove unbound antibody. Cells were analysed by FACS and mean fluorescence intensity (MFI) values measured to determine binding.
# Cyno in house BCMA [1] = assay: ProteOn analysis of CA8 chimeric and humanised constructs, cyno in house BCMA; type: binding; details: 25° C.; for ka: in M-1s-1 (unit assumed); for kd: in s-1 (unit assumed)
# [2] = system: multiple myeloma cell lines H929, OPM-2, JJN-3 and U266; assay: FACS binding curve of chimeric CA8 to multiple myeloma cells; design: species or system human; details: varying concentrations, 20 minutes at RT
# Procedure: A panel of multiple myeloma cell lines were used to determine the binding of chimeric CA8. […] Cells were then washed with FACS buffer (PBS+0.5% BSA+0.1% sodium azide) to remove unbound antibody. Cells were incubated with a secondary PE labelled anti-human IgG antibody for 15 minutes at RT and then washed with FACS buffer to remove unbound antibody. Cells were analysed by FACS and mean fluorescence intensity (MFI) values measured to determine binding.
# Cyno in house BCMA [3] = assay: BIAcore analysis J7 to J9 series, cyno in house BCMA; type: binding; details: 37° C.
# Human commercial BCMA = target: T2, Human commercial BCMA; assay: BIAcore analysis of J6M0 and J9M0, human commercial BCMA; type: binding
# Procedure: Protein A was immobilised on a CMS chip (GE Healthcare, Cat No: BR-1005-30) by primary amine coupling and this surface was then used to capture the antibody molecules. Recombinant human BCMA (US Biological, B0410) was used as analyte at 256 nM, 64 nM, 16 nM, 4 nM and 1 nM. Regeneration of the capture surface was carried out using 50 mM NaOH. All binding curves were double referenced with a buffer injection (i.e. 0 nM) the data was fitted to the using the 1:1 model inherent to T100 evaluation software. The run was carried out at 25° C. and 37° C. for experiment 1 and only 37° C. for experiment 2 using HBS-EP as the running buffer.
# TACI-Fc = assay: Biacore cross reactivity experiment, TACI-Fc; type: binding; details: antibody captured on protein A
# Procedure: as §1, §2
# [4] = target: T3, ARH77-hBCMA 10B5 BCMA expressing transfectant cells; assay: FACS binding of humanised CA8 to BCMA transfected cells; details: varying concentrations, 20 minutes at RT
# Procedure: as §3
# Human BCMA-Fc = target: T4, Human BCMA-Fc (Homo sapiens, UniProt Q02223); assay: ELISA binding to recombinant human BCMA-Fc; details: 5 ug/ml to 0.1 ug/ml antibody
# T4 construct: CD33 signal peptide (N); TEV site (internal)
# Procedure: Chimeric CA8 antibodies were tested for binding to human BCMA and cyno BCMA expressed as Fc fusions. Human BCMA-Fc and cyno BCMA-Fc were coated to ELISA plates and the plates were blocked using BSA to reduce non specific binding. CA8 chimeric antibodies were added in a concentration range from 5 ug/ml to 0.1 ug/ml to the human and cyno BCMA coated ELISA plates. Any bound human chimeric CA8 antibody was detected using anti-human IgG HRP conjugated secondary antibody as appropriate. HRP substrate (TMB) was added to develop the ELISA.
# [5] = system: ARH77 BCMA transfected target cells (10B5); assay: ADCC of chimeric and defucosylated chimeric CA8 with NK cells; type: cell-based; details: human NK cells, E:T ratio 5:1, 2 hours
# Procedure: Human natural killer (NK) cells were incubated with europium labelled ARH77 BCMA transfected target cells (10B5) in the presence of varying concentrations of antibody at an E:T ratio of 5:1 for 2 hours. Europium release from the target cells was measured and specific lysis calculated.
# Chain of Cyno in house BCMA (as listed by the source): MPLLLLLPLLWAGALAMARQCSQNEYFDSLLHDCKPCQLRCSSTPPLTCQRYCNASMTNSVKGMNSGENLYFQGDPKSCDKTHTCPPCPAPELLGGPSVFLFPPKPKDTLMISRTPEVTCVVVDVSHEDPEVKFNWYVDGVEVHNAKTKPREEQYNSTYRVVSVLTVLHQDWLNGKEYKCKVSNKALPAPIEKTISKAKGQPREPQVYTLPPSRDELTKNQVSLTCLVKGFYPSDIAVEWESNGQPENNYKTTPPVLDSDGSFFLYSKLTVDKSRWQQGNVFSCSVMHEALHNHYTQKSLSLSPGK
# T4 sequence (Q02223 with tags, fused parts or gaps): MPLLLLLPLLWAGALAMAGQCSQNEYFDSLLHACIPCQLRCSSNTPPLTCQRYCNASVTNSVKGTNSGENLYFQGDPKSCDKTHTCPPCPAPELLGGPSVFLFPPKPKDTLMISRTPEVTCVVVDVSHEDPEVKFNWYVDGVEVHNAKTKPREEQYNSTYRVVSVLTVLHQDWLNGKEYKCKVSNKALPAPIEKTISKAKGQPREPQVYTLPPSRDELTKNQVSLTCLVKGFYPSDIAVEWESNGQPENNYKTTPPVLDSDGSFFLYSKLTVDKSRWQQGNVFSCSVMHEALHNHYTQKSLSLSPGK
# Chain of BAFF-R-Fc (Q96RJ3 1-78 limits assumed): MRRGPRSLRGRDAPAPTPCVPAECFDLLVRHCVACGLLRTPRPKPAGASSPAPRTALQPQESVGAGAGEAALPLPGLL
molecule,measurement,setting,value
"CA8 Chimera: chimeric anti-BCMA antibody: murine CA8 VH (SEQ ID NO:7) and VL (SEQ ID NO:9) on human γ1 and kappa constant regions (antibody, V domains shown, human IgG1 and kappa constant regions; mus musculus) VH: EVQLQQSGAVLARPGASVKMSCKGSGYTFTNYWMHWVKQRPGQGLEWIGATYRGHSDTYYNQKFKGKAKLTAVTSTSTAYMELSSLTNEDSAVYYCTRGAIYNGYDVLDNWGQGTLVTVSS VL: DIQLTQTTSSLSASLGDRVTISCSASQDISNYLNWYQQKPDGTVELVIYYTSNLHSGVPSRFSGSGSGTDYSLTIGYLEPEDVATYYCQQYRKLPWTFGGGSKLEIKR",binding to BCMA-Fc,BCMA-Fc,specific for binding to BCMA
same,binding to BAFF-R-Fc,BAFF-R-Fc,does not bind
same,binding to human BCMA expressed on HEK293 cells,human BCMA HEK293,binds well
same,dose dependent binding to H929 cells by FACS (MFI),H929 cells,bound
same,ka,"Cyno in house BCMA [1]; Run 1, Cyno in house BCMA",3.82E+05
same,kd,"Cyno in house BCMA [1]; Run 1, Cyno in house BCMA",1.74E−04
same,ka,"Cyno in house BCMA [1]; Run 2, Cyno in house BCMA",5.89E+04
same,kd,"Cyno in house BCMA [1]; Run 2, Cyno in house BCMA",1.21E−04
same,binding to multiple myeloma cell lines by FACS (MFI),[2],"bound to multiple myeloma cell lines H929, OPM-2, JJN-3 & U266 in a dose dependent manner"
same,ka,Cyno in house BCMA [3]; in M-1s-1 (unit assumed),1.15E+06
same,kd,Cyno in house BCMA [3]; in s-1 (unit assumed),3.49E−04
same,ka,"Human commercial BCMA; 25° C., Experiment 1, in M-1s-1 (unit assumed)",1.88E+06
same,kd,"Human commercial BCMA; 25° C., Experiment 1, in s-1 (unit assumed)",2.63E−04
same,ka,"Human commercial BCMA; 37° C., Experiment 1, in M-1s-1 (unit assumed)",1.72E+07
same,kd,"Human commercial BCMA; 37° C., Experiment 1, in s-1 (unit assumed)",8.72E−04
same,ka,"Human commercial BCMA; 37° C., Experiment 2, in M-1s-1 (unit assumed)",1.88E+07
same,kd,"Human commercial BCMA; 37° C., Experiment 2, in s-1 (unit assumed)",1.04E−03
same,binding to TACI-Fc,TACI-Fc; listed as CA8,not to TACI
same,binding to TACI-Fc,TACI-Fc; listed as CA8 chimera antibody,does not bind
same,dose dependent binding to ARH77-hBCMA 10B5 cells by FACS (MFI),[4],bound
same,binding to recombinant human BCMA (ELISA),Human BCMA-Fc; listed as Chimeric CA8,binds to recombinant human and cyno BCMA
same,binding to recombinant human BCMA (ELISA),Human BCMA-Fc; listed as human chimeric CA8 antibodies,bind to human and cyno BCMA proteins equally
same,"ADCC activity (specific lysis, europium release)",[5],killed BCMA expressing target cells via ADCC
